B1: SR6v15.d (VHH)
chain: EVQLVESGGGLVQAGDSLRLSCAASGDSYILWRMGWFRQAPGKEREFVAAISLDGQFTNYADSVRGRFSISADSAKYTVYLQMNSLKPEDTAVYYCAALPFLDYWGQGTQVTVSSEVQLVESGGGLVQAGDSLRLSCAASGDSYILWRMGWFRQAPGKEREFVAAISLDGQFTNYADSVRGRFSISADSAKYTVYLQMNSLKPEDTAVYYCAALPFLDYWGQGTQVTVSS
B2: SR6c3 (VHH)
VHH: EVQLVESGGGLVQAGDSLRLSCAASGDCHVLWRMGWFRQAPGKEREFVAAISLDGQFTNYADSVRGRFSISADSAKNTVYLQMNSLKPEDTAVYYCAALPFLDYWGQGTQVTVSS

Biological target: SARS-CoV-2 S on pseudotyped lentivirus (pCMV-SARS2deltaC-gp41) (SARS-CoV-2, UniProt P0DTC2 14-1246)
Assay: cell-based or functional assay

Row | Binder | IC50 of pseudovirus neutralization [nM] | pseudovirus neutralization potency, fold increase against monomeric SR6v15 [fold] | IC50 of neutralization of pseudotyped lentiviral infection [nM]
1 | B1 | 0.329 | > 10 | 
2 | B2 |  |  | 62.7
